Laboratory results as given in PMC9609006.
Substitutions are numbered along the chain they refer to. In names and notes the source's numbering stands.

B1: HorGH1 (Halothermothrix orenii H 168; E166A/E354G/M299R) (protein)
chain: MAKIIFPEDFIWGAATSSYQIEGAFNEDGKGESIWDRFSHTPGKIENGDTGDIACDHYHLYREDIELMKEIGIRSYRFSTSWPRILPEGKGRVNQKGLDFYKRLVDNLLKANIRPMITLYHWDLPQALQDKGGWTNRDTAKYFAEYARLMFEEFNGLVDLWVTHNAPWVVAFEGHAFGNHAPGTKDFKTALQVAHHLLLSHGMAVDIFREEDLPGEIGITLNLTPAYPAGDSEKDVKAASLLDDYINAWFLSPVFKGSYPEELHHIYEQNLGAFTTQPGDMDIISRDIDFLGINYYSRRVVRHKPGDNLFNAEVVKMEDRPSTEMGWEIYPQGLYDILVRVNKEYTDKPLYITGNGAAFDDKLTEEGKIHDEKRINYLGDHFKQAYKALKDGVPLRGYYVWSLMDNFEWAYGYSKRFGLIYVDYENGNRRFLKDSALWYREVIEKGQVEAN
B2: HorGH1 (Halothermothrix orenii H 168; E166A/E354G) (protein)
chain: B1 chain with R299M

How the values were obtained:
purified protein [1] = substrate: O=[N+]([O-])c1ccc(S)cc1; experiment: purified protein; settings: thioglycosynthase reaction; thiol acceptor; donor α-D-glucopyranosyl fluoride
purified protein [2] = substrate: OC[C@H]1O[C@H](F)[C@H](O)[C@@H](O)[C@@H]1O; experiment: purified protein; settings: thioglycosynthase reaction; glycosyl donor; thiol acceptor p-nitrothiophenol

Protein	Km (purified protein [1]) [mM]	Km (purified protein [2]) [mM]
B1	3.82	2.26
B2	7.46	2.12
